Laboratory results reported in patent US20170296650A1 (Novartis, published 2017).

B1: 2C12 (antibody, V domains shown)
VH: QITLRESGPTLVKPTQTLTLTCTFSGFSLNTNGVGVGWIRQPPGKALEWLALIYWNGNEGYSPSLKSRLTITKDTSKNQVVLTMTNMDPVDTATYYCVHWPQGLTTVTRLAFDIWGQGTMVTVSS
VL: QSALTQPRSVSGSPGQSVTISCTGTTSDVGRYNFVSWYQQHPGKAPKLLMYDVSQRPSGVPSRFSGSKSGNTASLTISGLQAEDEAVFYCCSYAGGNFFSYVFGTGTKVTVL
notes: human IgG; also called 2C12-biotin
B2: 7I13 (antibody, V domains shown)
VH: QVQLVESGGGVVQPGRSLRLSCAASGFTFSNYGMHWVRQGPGKGLEWVAVISYDASSKYYTDSVQGRFTISRDNSKNTLFLQMNSLRGEDTAVYYCAKALRYLDWFLSDPFDYWGQGTLVTVSS
VL: EIVLTQSPGTLSLSPGERATLSCRASQSVSSDFLAWYQQKPGQAPRLLIYGASSRATGIPDRFSGSGSGTDFTLTISRLEPEDFAVYYCQQYAASPPFGQGTRLEIK
notes: human IgG; also called 7113
B3: 8C15 (antibody, V domains shown)
VH: QVQLQESGPGLVKPSETLSLTCTVSGGSIRSYYWSWIRQPPGKGLEWIGHIYYSGNTNYSPSLQSRVTISLDTPKNQFSLRLSSVTAADTAVYYCARHDVIVVRGVFDVWGQGTVVTVSS
VL: QSALTQPASVSGSPGQSITISCTGTSSDIGTYNLVSWYQQHPGKAPKVLIYDGSKRPSGVSSRFSASKSGNTASLTISGLQAEDETDYYCCSYAGTSDFFVVFGGGTKLTVL
notes: human IgG; also called 8C15-biotin
B4: 8J16 (antibody, V domains shown)
VH: QVQLQESGPGLVKPSETLSLTCSVSGGFTSSYYWSWIRQAPGKGLEWIGYVYYGESTDYNPSLKSRATISIDTSKNQFSLKLSSVTAADTAVYYCAREVDKRGFDYWGQGALVTVSS
VL: EIVLTQSPGTLSLSPGERATLSCRASQSVSGGYLAWYQQEPGQAPRLVIYGASSRATGIPDRFSASGSGTDFTLTITRLEPEDFAVYYCQQYGRTPLTFGGGTKVEIK
notes: human IgG; also called 8J16-biotin
B5: 9I6 (antibody, V domains shown)
VH: EVQLVQSGAEVKKPGESLKISCRESGDTFPAYWIAWVRQMPGKGLEWMGIIYPIDSETTYSPSFQGQVTISADKSINTAYLQWSSLKASDSAIYYCARGTSTGLREAFHIWGQGTMVTVSS
VL: DVVMTQSPLSLAVTLGQPAYISCRSSQSLGYSDGNTYLNWFQQRPGQSPRRLIYEVSNRDSGVPDRFSGSGSGTDFTLKISRVEAEDVGTYYCMQGTHWPPMCSFGQGTKLEIK
notes: human IgG; also called 9I6-biotin; 916
B6: 2B11 (antibody, V domains shown)
VH: AVRLVESGGGLAQPGRSLRLSCQVSGFTFGSYEMNWVRQAPGKGLEWIAYIDFTGSTIYYADSVKGRFTISRNTARNSLYLQMNSLRVEDTAVYYCVRDAGRWGTSWYYFDYWGQGTRVTVSP
VL: QSVLTQPPSVSGAPGQRVTISCTGISSNIGAGYDIHWYQQIPGKAPKLLVYGNNNRPSGVPDRFSGSKSGTSVSLAITGLQVEDEADYYCQSYDNSLNGWVFGGGTRLTVL
notes: human IgG; also called 2B11-biotin

What was measured:
[1] = target: T1, hCMV gH + gL + UL128 + UL130 + UL131A (5-member complex; HEK293T co-transfectant) (hCMV, UniProt P12824 24-743; P16832 31-278; P16837 1-171; P16772 1-214); test: cell competition; competitor 2C12-biotin
T1 construct: whole, on cells; in the functional rows it stands for the complex on virions or transduced cells of the strain or isolate named in the readout; also called gH/gL/UL128-131A complex; pentameric complex

[2] = target: T1, hCMV gH + gL + UL128 + UL130 + UL131A …; test: cell competition; competitor 8I21-biotin
[3] = target: T1, hCMV gH + gL + UL128 + UL130 + UL131A …; test: cell competition; competitor 8J16-biotin
[4] = target: T1, hCMV gH + gL + UL128 + UL130 + UL131A …; test: cell competition; competitor 15D8-biotin
[5] = target: T1, hCMV gH + gL + UL128 + UL130 + UL131A …; test: cell competition; competitor 5A2-biotin
[6] = target: T1, hCMV gH + gL + UL128 + UL130 + UL131A …; test: cell competition; competitor 10F7-biotin
[7] = target: T1, hCMV gH + gL + UL128 + UL130 + UL131A …; test: cell competition; competitor 4I22-biotin
[8] = target: T1, hCMV gH + gL + UL128 + UL130 + UL131A …; test: cell competition; competitor 2F4-biotin
[9] = target: T1, hCMV gH + gL + UL128 + UL130 + UL131A …; test: cell competition; competitor 9I6-biotin
[10] = target: T1, hCMV gH + gL + UL128 + UL130 + UL131A …; test: cell competition; competitor 1F11-biotin
[11] = target: T1, hCMV gH + gL + UL128 + UL130 + UL131A …; test: cell competition; competitor 6G4-biotin
[12] = target: T1, hCMV gH + gL + UL128 + UL130 + UL131A …; test: cell competition; competitor 8C15-biotin
[13] = target: T1, hCMV gH + gL + UL128 + UL130 + UL131A …; test: cell competition; competitor 4N10-biotin
[14] = target: T2, hCMV UL128 + UL130 + UL131A (HEK293T co-transfectant) (hCMV, UniProt P16837 1-171; P16772 1-214); test: cell-based or functional assay
[15] = target: T2, hCMV UL128 + UL130 + UL131A (HEK293T …); test: cell-based or functional assay; remark: listed apart in the source
[16] = target: T3, hCMV glycoprotein B (gB; HEK293T transfectant) (hCMV, UniProt P06473 32-906); test: cell competition; competitor 6B4-biotin
T3 construct: whole, on cells; in the functional rows it stands for gB on virions or transduced cells of the strain or isolate named in the readout

[17] = target: T3, hCMV glycoprotein B (gB; HEK293T …); test: cell competition; competitor 2B11-biotin
[18] = target: T3, hCMV glycoprotein B (gB; HEK293T …); test: cell competition; competitor 5F1-biotin
[19] = target: T3, hCMV glycoprotein B (gB; HEK293T …); test: cell competition; competitor 10C6-biotin
[20] = target: T3, hCMV glycoprotein B (gB; HEK293T …); test: cell competition; competitor 4H9-biotin
[21] = target: T3, hCMV glycoprotein B (gB; HEK293T …); test: cell competition; competitor 7H3-biotin
[22] = target: T3, hCMV glycoprotein B (gB; HEK293T …); test: cell-based or functional assay

T2 sequence (P16837 whole entry, chain 1 of 2): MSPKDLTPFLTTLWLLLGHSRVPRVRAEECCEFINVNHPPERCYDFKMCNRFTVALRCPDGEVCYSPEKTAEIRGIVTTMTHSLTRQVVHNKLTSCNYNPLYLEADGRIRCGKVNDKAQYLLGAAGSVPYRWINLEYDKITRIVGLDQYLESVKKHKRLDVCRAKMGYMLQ
T2 sequence (P16772 whole entry, chain 2 of 2): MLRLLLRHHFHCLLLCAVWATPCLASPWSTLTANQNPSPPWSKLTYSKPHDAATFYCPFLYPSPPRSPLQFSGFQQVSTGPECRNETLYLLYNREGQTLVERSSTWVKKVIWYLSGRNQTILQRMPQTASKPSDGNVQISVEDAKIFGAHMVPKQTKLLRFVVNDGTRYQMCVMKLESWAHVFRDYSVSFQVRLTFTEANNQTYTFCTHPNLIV
T3 sequence (P06473 32-906 limits assumed): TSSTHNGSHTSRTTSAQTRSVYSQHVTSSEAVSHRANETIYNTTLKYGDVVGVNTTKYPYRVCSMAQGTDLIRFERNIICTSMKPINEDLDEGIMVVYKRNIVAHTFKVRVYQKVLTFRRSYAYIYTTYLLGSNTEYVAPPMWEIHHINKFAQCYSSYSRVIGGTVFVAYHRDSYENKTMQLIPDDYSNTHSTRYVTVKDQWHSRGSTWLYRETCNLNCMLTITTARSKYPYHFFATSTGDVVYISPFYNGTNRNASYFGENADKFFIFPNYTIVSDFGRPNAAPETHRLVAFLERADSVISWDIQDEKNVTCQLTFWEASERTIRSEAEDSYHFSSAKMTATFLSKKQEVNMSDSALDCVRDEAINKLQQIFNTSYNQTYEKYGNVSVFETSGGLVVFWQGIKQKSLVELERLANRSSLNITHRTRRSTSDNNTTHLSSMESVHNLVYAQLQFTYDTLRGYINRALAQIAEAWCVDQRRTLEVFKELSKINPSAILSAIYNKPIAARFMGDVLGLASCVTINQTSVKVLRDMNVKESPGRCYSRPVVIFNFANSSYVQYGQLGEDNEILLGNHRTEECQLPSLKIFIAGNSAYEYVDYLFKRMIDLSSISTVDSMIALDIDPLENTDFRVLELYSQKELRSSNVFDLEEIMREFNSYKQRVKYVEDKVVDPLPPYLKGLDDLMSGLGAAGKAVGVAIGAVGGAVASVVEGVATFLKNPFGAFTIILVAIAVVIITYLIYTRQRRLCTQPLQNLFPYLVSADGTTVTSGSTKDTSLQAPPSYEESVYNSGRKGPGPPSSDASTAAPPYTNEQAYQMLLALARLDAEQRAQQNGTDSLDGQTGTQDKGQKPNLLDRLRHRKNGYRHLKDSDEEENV

Binder	Inhibition of binding (%) [1] [%]	Inhibition of binding (%) [2] [%]	Inhibition of binding (%) [3] [%]	Inhibition of binding (%) [7] [%]	Inhibition of binding (%) [8] [%]	Inhibition of binding (%) [9] [%]	Inhibition of binding (%) [10] [%]	Inhibition of binding (%) [11] [%]	Inhibition of binding (%) [12] [%]	90% neutralization VR1814, ARPE [14] [µg/mL]	90% neutralization VR1814, MRC-9 [14] [µg/mL]	50% neutralization VR1814, ARPE [15] [µg/mL]	50% neutralization VR1814, MRC-9 [15] [µg/mL]	also measured
B1	100	0	100	0	0	100	0	100	100	0.006	> 10	< 0.01	≤ 2	Inhibition of binding (%) [4]: 0%; Inhibition of binding (%) [5]: 0%; Inhibition of binding (%) [6]: 0%; Inhibition of binding (%) [13]: 0%
B2	0	0	0	–	–	0	0	0	0	0.008	> 10	< 0.01	> 2	–
B3	100	0	100	0	–	100	–	100	100	0.0025	> 10	< 0.001	> 2	–
B4	100	0	100	0	0	70	0	100	100	0.0008	> 10	< 0.001	> 2	–
B5	100	0	100	0	0	100	0	100	100	0.0007	> 10	< 0.001	> 2	–
B6	–	–	–	–	–	–	–	–	–	–	–	–	–	Inhibition of binding (%) [16]: 0%; Inhibition of binding (%) [17]: 100%; Inhibition of binding (%) [18]: 100%; Inhibition of binding (%) [19]: 100%; Inhibition of binding (%) [20]: 100%; Inhibition of binding (%) [21]: 0%; 90% neutralization VR1814, ARPE [22]: 0.2 µg/mL; 90% neutralization VR1814, MRC-9 [22]: 0.75 µg/mL
